We go through seven molecules from US20240239878A1 (SHANGHAI QILU PHARMACEUTICAL RESEARCH AND DEVELOPMENT CENTRE, published 2024).

For assay [1], the target named is T1, human DLL3 on SHP-77 cells (human, UniProt Q9NYJ7 27-618).
T1 construct: also called DLL3-expressing cells (SHP-77)
T1 sequence: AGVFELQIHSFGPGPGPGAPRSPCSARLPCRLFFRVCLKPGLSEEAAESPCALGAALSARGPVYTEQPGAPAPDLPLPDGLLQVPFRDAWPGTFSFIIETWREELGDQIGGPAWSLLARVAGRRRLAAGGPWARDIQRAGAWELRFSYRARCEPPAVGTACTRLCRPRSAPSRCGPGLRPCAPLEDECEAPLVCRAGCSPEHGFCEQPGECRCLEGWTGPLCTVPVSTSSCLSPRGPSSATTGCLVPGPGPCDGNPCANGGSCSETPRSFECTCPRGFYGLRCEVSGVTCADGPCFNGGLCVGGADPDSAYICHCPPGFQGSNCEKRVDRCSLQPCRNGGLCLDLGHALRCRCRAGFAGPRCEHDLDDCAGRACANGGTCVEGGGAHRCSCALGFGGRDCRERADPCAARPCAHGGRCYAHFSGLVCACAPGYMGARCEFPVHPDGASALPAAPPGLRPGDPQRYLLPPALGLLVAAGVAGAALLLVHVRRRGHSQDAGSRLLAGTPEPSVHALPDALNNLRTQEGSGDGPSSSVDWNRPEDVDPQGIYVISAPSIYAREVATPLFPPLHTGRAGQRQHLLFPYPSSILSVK
Description: flow cytometry, SHP-77 cells. The protocol:
(§1) SHP-77 and HEK293-cyno DLL3 cells were cultured. The culture medium for SHP-77 cells were RPMI1640+10% FBS, and the culture medium for HEK293 cyno DLL3 cells were DMEM+10% FBS+200 μg/ml Hygromycin. The cells were cultured in a T75 cell culture flask at a 37° C. 5% CO₂ incubator. When using cells, they are washed with sterile DPBS, digested with 0.25% trypsin EDTA for about 5 minutes, and then stopped with a complete medium.
(§2) The digested cells were centrifuged at 1000 rpm for 5 min at room temperature. The supernatant was discarded and the cells were resuspended in 100 μL of 1% BSA (in PBS). The cells were counted and adjusted to a cell density of 1E6/m. The dilute cells were seeded in a 96-well round-bottom culture plate (corning 3799), and centrifuged at 1500 rpm for 5 min at 4° C. The supernatant was discarded and the cells were stored at 4° C. until use. Antibody samples to be tested were diluted with 1% BSA (in PBS) at a starting concentration of 100 nM, downwards by a 10-fold gradient for 7 concentrations. The cells were resuspended with the diluted antibody at 100 μL/well and incubated for 1 hour at 4° C. The cells were centrifuged at 1500 rpm for 5 minutes at 4° C. and the supernatant was discarded. The cells were resuspended and washed with 160 μL of 1% BSA (in PBS), centrifuged at 1500 rpm for 5 minutes at 4° C. The supernatant was discarded. The secondary antibody (goat anti human IgG Fc PE) was diluted 1:200 with 1% BSA (in PBS) according to the manufacturer's instructions and the cells were resuspended with the diluted secondary antibody, 100 μL/well, and incubated for 0.5 h at 4° C. The cells were centrifuged at 1500 rpm for 5 minutes at 4° C. and the supernatant was discarded. The cells were resuspended and washed with 160 μL of 1% BSA (in PBS), centrifuged at 1500 rpm for 5 minutes at 4° C. The supernatant was discarded. The cells were resuspended in 100 μL of 1% BSA (in PBS), and filtered across a 300 mesh gauze. The mean fluorescence intensity of the PE channels was measured by flow cytometry.
(§3) The analyzed mean fluorescence intensity was imported into Graphpad to analyze the median-binding concentration (hereinafter referred to as EC50) of antibody and cell and the top mean fluorescence intensity (Top MFI).

For assay [2], the target named is T2, Cynomolgus monkey DLL3 on HEK293 cells (HEK293-cyno DLL3) (Cynomolgus monkey, UniProt Q9NYJ7 27-618 (human entry)).
T2 chain: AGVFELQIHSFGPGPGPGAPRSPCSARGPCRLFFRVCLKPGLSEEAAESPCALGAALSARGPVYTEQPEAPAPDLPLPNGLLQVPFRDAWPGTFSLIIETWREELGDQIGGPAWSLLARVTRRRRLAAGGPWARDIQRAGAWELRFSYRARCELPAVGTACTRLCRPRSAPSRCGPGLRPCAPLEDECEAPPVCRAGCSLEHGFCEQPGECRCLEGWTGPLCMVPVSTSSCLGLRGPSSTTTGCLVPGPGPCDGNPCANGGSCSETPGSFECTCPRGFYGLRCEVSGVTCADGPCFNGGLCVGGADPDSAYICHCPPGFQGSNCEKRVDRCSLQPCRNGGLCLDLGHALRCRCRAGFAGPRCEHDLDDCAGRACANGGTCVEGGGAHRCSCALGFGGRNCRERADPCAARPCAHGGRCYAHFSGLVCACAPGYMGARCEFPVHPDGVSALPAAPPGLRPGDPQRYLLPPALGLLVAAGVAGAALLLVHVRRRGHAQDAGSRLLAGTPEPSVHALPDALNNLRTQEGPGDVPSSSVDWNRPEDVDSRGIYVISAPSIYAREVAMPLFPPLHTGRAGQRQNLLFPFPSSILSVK
The assay can be described thus: flow cytometry, HEK293-cyno DLL3 cells. The protocol: as §1, §2, §3

B1: DLL3-26 camelid-derived anti-DLL3 chimeric antibody (antibody, human IgG1, V domains shown)
VH: QVQLVESGGGSVQAGGSLRLSCAASGDIYSSSYVGWFRQAPGKEREGVAIIYTSGDSTYYANSVKGRFTISQDKAKKTLYLQMNSLKPEDTAMYYCAARFAIDNSNYWGQGTQVTVSS
B1: in assay [1], the response was half-maximal at 0.499 nM (EC50) and the “Top MFI” value was 841 MFI. Also, in assay [2], the midpoint of the response, the EC50, lay at 0.54 nM and the “Top MFI” value is 336 MFI.

B2: hDLL3-26 camelid-derived humanized anti-DLL3 antibody (antibody, V domains shown)
VH: EVQLVESGGGLVQPGGSLRLSCAASGDIYSSSYVGWFRQAPGKEREGVAIIYTSGDSTYYADSVKGRFTISRDNSKNTLYLQMNSLRAEDTAVYYCAARFAIDNSNYWGQGTLVTVSS
On to B2, for which, in assay [1], the EC50 came to 0.786 nM and the “Top MFI” value was 696 MFI. In assay [2], the EC50 was 2.24 nM and the “Top MFI” value was 301 MFI.

B3: hDLL3-3-1 camelid-derived humanized anti-DLL3 antibody (antibody, human IgG1, V domains shown)
VH: EVQLVESGGGLVQPGGSLRLSCAASTYTISSGYMGWFRQAPGKEREGVAAIYIGGSTTLYADSVKGRFTISRDNSKNTLYLQMNSLRAEDTAVYYCAAQLRPNSAYHPLDGRKYNYWGQGTLVTVSS
For B3, in assay [1], the EC50 is 0.086 nM and the “Top MFI” value stood at 702 MFI. Also, in assay [2], the EC50 came to 0.22 nM and the “Top MFI” value was 346 MFI.

B4: hDLL3-3-2 camelid-derived humanized anti-DLL3 antibody (antibody, V domains shown)
VH: EVQLVESGGGLVQPGGSLRLSCKSPTYTISSGYMGWFRQAPGKEREGVAAIYIGGSTTLYADSVKGRFTISRDNSKNTLYLQMNSLRAEDTAVYYCAAQLRPNSAYHPLDGRKYNYWGQGTLVTVSS
In the case of B4, in assay [1], the EC50 was found to be 0.049 nM and the “Top MFI” value was found to be 691 MFI. Further, in assay [2], it took 0.15 nM to reach a half-maximal effect (EC50) and the “Top MFI” value is 344 MFI.

B5: DLL3-122 camelid-derived anti-DLL3 chimeric antibody (antibody, human IgG1, V domains shown)
VH: QVQLVESGGGSVQAGGSLRLSCTASGDTYRSYCMGWFRKAPGKEREGVADIVSDGSTSYADSVKGRFTISKDNAKNTLYLQMNSLKPEDTAMYYCAVDRGGSGGYCYTGRYDYWGQGTQVTVSS
As for B5, in assay [1], it took 0.478 nM to reach a half-maximal effect (EC50) and the “Top MFI” value amounted to 877 MFI. Also, in assay [2], the response was half-maximal at 0.58 nM (EC50) and the “Top MFI” value stood at 351 MFI.

B6: hDLL3-122 camelid-derived humanized anti-DLL3 antibody (antibody, V domains shown)
VH: EVQLVESGGGLVQPGGSLRLSCAASGDTYRSYCMGWFRQAPGKEREGVADIVSDGSTSYADSVKGRFTISRDNSKNTLYLQMNSLRAEDTAVYYCAVDRGGSGGYCYTGRYDYWGQGTLVTVSS
B6: in assay [1], the EC50 amounted to 0.589 nM and the “Top MFI” value turned out to be 778 MFI. Also, in assay [2], the 50% effective concentration (EC50) was determined as 0.99 nM and the “Top MFI” value amounted to 351 MFI.

B7: DLL3-3 camelid-derived anti-DLL3 chimeric antibody (antibody, human IgG1, V domains shown)
VH: DVQLVESGGGSVQAGGSLKLSCKSPTYTISSGYMGWFRQAPGKEREGVAAIYIGGSTTLYADSVKGRFTISADNAEKTVYLQMNTLKPEDSAMYYCAAQLRPNSAYHPLDGRKYNYWGQGTQVTVSS
For B7, the EC50 worked out at 0.061 nM in assay [1] and 0.08 nM in assay [2]. In addition, the “Top MFI” value turned out to be 864 MFI in assay [1] and 379 MFI in assay [2].
